Results reported in US20150086562A1.

Target: recombinant CD22 extracellular domain
Assay: The sheet does not state the method. The column 'KD (nM)' stands beside the confocal data. The values largely repeat FIGURE 18 (SPR on recombinant CD22 extracellular domain), so the target form is taken from there.

recombinant CD22 extracellular domain, sequence (chain, as listed by the source limits assumed): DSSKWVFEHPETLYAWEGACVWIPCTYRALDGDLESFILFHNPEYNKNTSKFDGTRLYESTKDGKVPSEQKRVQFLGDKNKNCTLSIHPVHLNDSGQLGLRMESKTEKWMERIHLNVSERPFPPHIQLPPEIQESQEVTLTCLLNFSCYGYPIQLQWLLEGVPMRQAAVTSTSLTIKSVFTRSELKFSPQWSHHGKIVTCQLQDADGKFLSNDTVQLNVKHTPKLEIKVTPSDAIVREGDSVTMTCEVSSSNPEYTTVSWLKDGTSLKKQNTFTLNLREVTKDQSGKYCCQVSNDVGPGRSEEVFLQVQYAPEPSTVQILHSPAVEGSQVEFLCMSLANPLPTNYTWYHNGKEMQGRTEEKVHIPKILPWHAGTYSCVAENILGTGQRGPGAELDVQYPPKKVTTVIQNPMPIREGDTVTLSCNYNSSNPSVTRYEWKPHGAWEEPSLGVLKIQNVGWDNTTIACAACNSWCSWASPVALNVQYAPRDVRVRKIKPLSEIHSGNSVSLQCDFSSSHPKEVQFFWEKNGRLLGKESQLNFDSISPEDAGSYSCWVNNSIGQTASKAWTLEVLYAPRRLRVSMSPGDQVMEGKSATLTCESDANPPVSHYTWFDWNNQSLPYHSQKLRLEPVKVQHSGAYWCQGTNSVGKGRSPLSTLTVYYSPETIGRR

Kd: 20 nM
Substance: LL2 (mouse Mab) (antibody)
